From paper PMC4167924

Target: adaptor protein 1A complex (AP-1A; γ/β1/μ1A/σ1), endogenous, mouse (mouse (endogenous in pituitary and in AtT-20)) (UniProt P22892)
Test: co-IP

Sequence of UniProt P22892 (P22892 whole entry, chain 1 of 4): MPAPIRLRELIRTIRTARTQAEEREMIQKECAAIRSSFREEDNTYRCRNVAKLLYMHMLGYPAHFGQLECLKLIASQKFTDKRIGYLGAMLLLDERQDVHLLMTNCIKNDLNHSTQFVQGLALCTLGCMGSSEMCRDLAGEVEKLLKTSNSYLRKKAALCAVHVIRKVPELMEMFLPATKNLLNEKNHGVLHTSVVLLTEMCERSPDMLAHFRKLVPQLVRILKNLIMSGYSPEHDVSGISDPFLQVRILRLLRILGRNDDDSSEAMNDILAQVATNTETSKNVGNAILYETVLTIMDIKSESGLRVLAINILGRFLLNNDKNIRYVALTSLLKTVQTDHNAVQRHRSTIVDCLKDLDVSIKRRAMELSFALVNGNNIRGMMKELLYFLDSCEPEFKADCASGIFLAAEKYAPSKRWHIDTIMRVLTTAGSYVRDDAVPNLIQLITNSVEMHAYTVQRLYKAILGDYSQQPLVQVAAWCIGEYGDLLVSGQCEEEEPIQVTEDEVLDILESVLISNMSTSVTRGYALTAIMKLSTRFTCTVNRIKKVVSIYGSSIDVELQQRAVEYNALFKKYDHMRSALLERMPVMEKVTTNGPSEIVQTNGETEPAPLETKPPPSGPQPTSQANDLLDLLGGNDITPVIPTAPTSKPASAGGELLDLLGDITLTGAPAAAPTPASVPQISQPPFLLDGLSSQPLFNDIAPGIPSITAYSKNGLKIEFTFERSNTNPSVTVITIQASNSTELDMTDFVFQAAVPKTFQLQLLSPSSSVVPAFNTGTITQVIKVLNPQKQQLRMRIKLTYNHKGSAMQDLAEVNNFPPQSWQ
Sequence of UniProt P22892 (O35643 whole entry, chain 2 of 4, further chain): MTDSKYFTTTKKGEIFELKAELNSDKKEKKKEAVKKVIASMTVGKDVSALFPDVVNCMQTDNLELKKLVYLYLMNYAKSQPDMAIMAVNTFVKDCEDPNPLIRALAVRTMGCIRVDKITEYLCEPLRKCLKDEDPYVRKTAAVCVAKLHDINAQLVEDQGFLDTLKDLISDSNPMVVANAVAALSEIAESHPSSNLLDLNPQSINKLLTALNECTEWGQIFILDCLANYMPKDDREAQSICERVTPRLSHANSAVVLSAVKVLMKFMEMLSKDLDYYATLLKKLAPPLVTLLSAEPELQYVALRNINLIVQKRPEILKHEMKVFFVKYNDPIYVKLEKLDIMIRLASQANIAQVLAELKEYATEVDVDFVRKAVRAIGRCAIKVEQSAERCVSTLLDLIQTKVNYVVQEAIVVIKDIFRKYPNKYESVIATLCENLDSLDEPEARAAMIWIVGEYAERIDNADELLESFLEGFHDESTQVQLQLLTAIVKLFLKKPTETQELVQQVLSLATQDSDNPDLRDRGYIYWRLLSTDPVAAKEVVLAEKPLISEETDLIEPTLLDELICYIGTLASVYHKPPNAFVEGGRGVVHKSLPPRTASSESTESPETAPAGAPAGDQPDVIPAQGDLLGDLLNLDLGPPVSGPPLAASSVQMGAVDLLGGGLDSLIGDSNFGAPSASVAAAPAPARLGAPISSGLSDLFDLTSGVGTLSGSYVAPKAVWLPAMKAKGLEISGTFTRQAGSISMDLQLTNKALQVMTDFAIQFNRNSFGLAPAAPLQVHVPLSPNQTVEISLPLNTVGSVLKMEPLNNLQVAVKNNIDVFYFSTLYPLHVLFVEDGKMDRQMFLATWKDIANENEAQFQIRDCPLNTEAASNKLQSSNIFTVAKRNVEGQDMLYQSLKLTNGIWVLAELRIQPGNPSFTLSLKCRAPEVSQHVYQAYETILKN
Sequence of UniProt P22892 (P35585 whole entry, chain 3 of 4, further chain): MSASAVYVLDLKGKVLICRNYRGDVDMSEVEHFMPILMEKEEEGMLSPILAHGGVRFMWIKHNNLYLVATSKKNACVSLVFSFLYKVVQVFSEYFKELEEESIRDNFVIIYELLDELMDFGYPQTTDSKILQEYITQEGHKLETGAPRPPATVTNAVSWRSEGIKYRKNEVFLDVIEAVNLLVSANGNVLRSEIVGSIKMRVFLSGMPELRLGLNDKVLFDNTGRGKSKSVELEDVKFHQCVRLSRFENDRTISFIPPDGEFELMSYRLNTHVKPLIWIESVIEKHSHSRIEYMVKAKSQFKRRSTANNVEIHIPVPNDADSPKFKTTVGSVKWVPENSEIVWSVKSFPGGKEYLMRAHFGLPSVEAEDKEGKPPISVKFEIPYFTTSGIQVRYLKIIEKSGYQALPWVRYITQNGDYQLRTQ
Sequence of UniProt P22892 (P61967 whole entry, chain 4 of 4, further chain): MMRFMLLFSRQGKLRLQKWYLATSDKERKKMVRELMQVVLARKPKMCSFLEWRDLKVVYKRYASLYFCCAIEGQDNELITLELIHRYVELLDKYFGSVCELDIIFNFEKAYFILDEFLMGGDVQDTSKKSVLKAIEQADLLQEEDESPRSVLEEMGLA

percent of PAM-1 co-immunoprecipitated [%]	Binder
2	PAM-1, stably expressed in AtT-20 cells (natural protein) FKETTRSFSNECLGTIGPVTPLDASDFALDIRMPGVTPKESDTYFCMSMRLPVDEEAFVIDFKPRASMDTVHHMLLFGCNMPSSTGSYWFCDEGTCTDKANILYAWARNAPPTRLPKGVGFRVGGETGSKYFVLQVHYGDISAFRDNHKDCSGVSVHLTRVPQPLIAGMYLMMSVDTVIPPGEKVVNADISCQYKMYPMHVFAYRVHTHHLGKVVSGYRVRNGQWTLIGRQNPQLPQAFYPVEHPVDVTFGDILAARCVFTGEGRTEATHIGGTSSDEMCNLYIMYYMEAKYALSFMTCTKNVAPDMFRTIPAEANIPIPVKPDMVMMHGHHKEAENKEKSALMQQPKQGEEEVLEQGDFYSLLSKLLGEREDVHVHKYNPTEKTESGSDLVAEIANVVQKKDLGRSDAREGAEHEEWGNAILVRDRIHRFHQLESTLRPAESRAFSFQQPGEGPWEPEPSGDFHVEEELDWPGVYLLPGQVSGVALDSKNNLVIFHRGDHVWDGNSFDSKFVYQQRGLGPIEEDTILVIDPNNAEILQSSGKNLFYLPHGLSIDTDGNYWVTDVALHQVFKLDPHSKEGPLLILGRSMQPGSDQNHFCQPTDVAVEPSTGAVFVSDGYCNSRIVQFSPSGKFVTQWGEESSGSSPRPGQFSVPHSLALVPHLDQLCVADRENGRIQCFKTDTKEFVREIKHASFGRNVFAISYIPGFLFAVNGKPYFGDQEPVQGFVMNFSSGEIIDVFKPVRKHFDMPHDIVASEDGTVYIGDAHTNTVWKFTLTEKMEHRSVKKAGIEVQEIKEAEAVVEPKVENKPTSSELQKMQEKQKLSTEPGSGVSVVLITTLLVIPVLVLLAIVMFIRWKKSRAFGDHDRKLESSSGRVLGRFRGKGSGGLNLGNFFASRKGYSRKGFDRVSTEGSDQEKDEDDGTESEEEYSAPLPKPAPSS
3	peptidylglycine α-amidating monooxygenase-1 (PAM-1), endogenous in mouse pituitary (natural protein) FKETTRSFSNECLGTTRPITPIDSSDFTLDIRMPGVTPKESDTYFCMSMRLPVDEEAFVIDFKPRASMDTVHHMLLFGCNMPSSTGSYWFCDEGTCTDKANILYAWARNAPPTRLPKGVGFRVGGETGSKYFVLQVHYGDISAFRDNHKDCSGVSLHLTRVPQPLIAGMYLMMSVNTVIPPGEKVVNSDISCHYKMYPMHVFAYRVHTHHLGKVVSGYRVRNGQWTLIGRQSPQLPQAFYPVEHPVDVAFGDILAARCVFTGEGRTEATHIGGTSSDEMCNLYIMYYMEAKHAVSFMTCTQNVAPDMFRTIPEEANIPIPVKSDMVMIHGHHKETENKEKSALIQQPKQGEEEAFEQGDFYSLLSKLLGEREDVVHVHKYNPTEKTESGSDLVAEIANVVQKKDLGRSDAREGAEHEEGGNAILVRDRIHKFHRLESTLRPAESRALSFQQPGEGPWEPELAGDFHVEEALEWPGVYLLPGQVSGVALDSKNNLVIFHRGDHVWDGNSFDSKFVYQQRGLGPIEEDTILVIDPNKAEILQSSGKNLFYLPHGLSIDTDGNYWVTDVALHQVFKLEPRSKEGPLLVLGRSMQPGSDQNHFCQPTDVAVEPSTGAVFVSDGYCNSRIVQFSPSGKFITQWGEESSGSSPKPGQFSVPHSLALVPHLNQLCVADRENGRIQCFKTDTKEFVREIKHASFGRNVFAISYIPGFLFAVNGKPYFGDQEPVQGFVMNFSSGEIIDVFKPVRKHFDMPHDIVASEDGTVYIGDAHTNTVWKFTLTESRLEVEHRSVKKAGIEVPEIKEAEAVVEPKVKNKPTSSELQKMQEKKKLIKDPGSGVPVVLITTLLVIPVVVLLAIAMFIRWKKSRAFGDHDRKLESSSGRVLGRLRGKGSSGLNLGNFFASRKGYSRKGFDRVSTEGSDQEKDEDDGSESEEEYSAPLPTPAPSS
